Results: the RNAGym collection of RNA variant scans (doi:10.1073/pnas.2313332121)
Fewer inactive variants are shown than the library holds.

B1: TPR 5TU (parent)
chain: GGAUCUUCUCGAUCUAACAAAAAAGACAAAUCUGCCACAAAGCUUGAGAGCAUCUUCGGAUGCAGAGGCGGCAGCCUUCGGUGGCGCGAUAGCGCCAACGUUCUCAACUAUGACACGCAAAACGCGUGCUCCGUUGAAUGGAGUUUAUCAUG

Variants of: B1
Experiment: polymerase ribozyme fitness, log enrichment relative to wild type (log ratio); higher = more active; in vitro selection for triplet polymerase activity
In short: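 Input and output libraries were sequenced on Illumina after a single in vitro selection round, run in triplicate on PCR-built, transcribed mutant libraries of each subunit of a heterodimeric triplet polymerase ribozyme. Selection annealed libraries to a biotinylated primer, the partner subunit and triplets, incubated them frozen at −7 °C, then gel-excised extended constructs for streptavidin-bead capture and RT-PCR. Genotypes with ≥10 input reads and ≥1 read per output were kept. Fitness is the logarithm, taken in base 2, of genotype enrichment divided by wild-type enrichment, using inverse-variance-weighted replicate averages.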

| Variant | polymerase ribozyme fitness (log ratio) |
| --- | --- |
| C76U | 0.0494 |
| G86A A150C | ≤ -4.2 |
| A40C U45A G50A A73U G92A | ≤ -4.2 |
| G58C C79U C85G G141U | ≤ -4.2 |
| U56A G58U A97C C99A | -2.52 |
| A19U A20U C35U G59C U77C C118U C123U G141A U151G | ≤ -4.2 |
| C63U G81C U82C U102G U104A C108A A150C | ≤ -4.2 |
| A37C G86A | -1.34 |
| A21U A26U G83A A106G | -3.03 |
| C10G G34U C85A | ≤ -4.2 |
| A49C U56G G65U A73C C87A | ≤ -4.2 |
| U55A G86A C93A U104C A113U G126A | ≤ -4.2 |
| G92U G136C | -3.44 |
| A12U G92U | -1.64 |
| G94A C114U | -1.93 |
| A3C A20C C38U A41C U53A G71A C93A G94U G126C | ≤ -4.2 |
| C75U A89C C95U | -0.65 |
| C38A C93G C123G | -3.67 |
| C27U C75G C85A C105G U130G U146G | ≤ -4.2 |
| A19G U33C A41C A91U C93A A97C | ≤ -4.2 |
| A12C A37C C72A U90G U101A C103U A138G A142U | ≤ -4.2 |
| A24G A29C A37G G46U C57U C76U A122U A138G U144G U151C | ≤ -4.2 |
| U4G G48A G88C C123U U134G A137C | ≤ -4.2 |
| A30C C93U A106U C131A A142C | -4.12 |

| Variant | polymerase ribozyme fitness (log ratio) |
| --- | --- |
| C38U A52G C57U G67U A89U G92A | ≤ -4.2 |
| U4C C5G C32A A40C U82C A98G C103U A113C A150C | ≤ -4.2 |
| A30G C54A C85G A120U C125U G136A | ≤ -4.2 |
| C14G C95U | -1.57 |
| G11C G48A A52G C96U A113G C118U G141U A142C U151G | ≤ -4.2 |
| G11C G50A G92U G143A | -4.01 |
| C87U C105G | -1.18 |
| A22C G50U G67U G74U G92C C149G | ≤ -4.2 |
| A40C A89G A150G | -3.25 |
| U135G G141U U146G | ≤ -4.2 |
| U44G A73U C85U U109G | ≤ -4.2 |
| C35U C95G | -1.22 |
| A37G | -1.24 |
| A60U U77A | ≤ -4.2 |
| C14G A22G C54U G70U C95U C96A C114U A137C | ≤ -4.2 |
| C10A A12U G80C G94A | ≤ -4.2 |
| C14G A17G C32U G81A G83C | ≤ -4.2 |
| U33G C35A A66G C93U U104G C105U U134G | ≤ -4.2 |
| A16U A47C | -2.04 |
| U56A A73G C87G | ≤ -4.2 |
| U31A C51U A73G C95G | -3.09 |
| U15A A26C | -1.44 |
| C51U A73G C96G C123U | -0.999 |
| C36A A40C G83C A106G U144A | ≤ -4.2 |

| Variant | polymerase ribozyme fitness (log ratio) |
| --- | --- |
| C10U C27U C35G C87G C96U U148G | ≤ -4.2 |
| A21U G25A A89C | -3.68 |
| A30G C54G A121U U139A U145C | ≤ -4.2 |
| U45A C99A A106U A121U C149G G152A | -4.01 |
| C51U C85A | -2.63 |
| G81A C103A | -1.13 |
| A3G C43U A60C G84A U130A | ≤ -4.2 |
| A26C G84C C108G G133A | ≤ -4.2 |
| U45G C85G | -3.44 |
| A17U G58C C95U C99A | -1.96 |
| G62C C63A C116G | -1.77 |
| A23C A37G U53A A66G G88U U130A U146A | ≤ -4.2 |
| C131U | 1.18 |
| U45A C99A | ≤ -4.2 |
| U4G G48U G84A C93A G133A G141C | ≤ -4.2 |
| C93A U134C | -1.59 |
| U56C G59A G92U U135A | -2.19 |
| A49G G50A C95U U145C | -2.54 |
| A37G A52G U55A U56A C85U C103U U145A | -3.09 |
| A12C C85G | -2.59 |
| G88A G136A | -3.83 |
| A20U A24C C54U C63U G65U G84A C132G U148A | ≤ -4.2 |
| A28C G67A G100C A119G C131U U145G | ≤ -4.2 |
| A47C U127C | -1.6 |

| Variant | polymerase ribozyme fitness (log ratio) |
| --- | --- |
| C5A U9G C93G C103A C108G A113G A137G | ≤ -4.2 |
| C87U G94C | -2.05 |
| A28C A39U C103U C116G U139G | ≤ -4.2 |
| A52C A60G | -0.764 |
| G42A C51G C75G C99U | ≤ -4.2 |
| A16U U139G G140U | ≤ -4.2 |
| A24G G25C A49U G84A U102G | ≤ -4.2 |
| G84U C105A U139C | -4.17 |
| A16U A19U A26C A37C G74C A89C G94A C108U A113G G136A | ≤ -4.2 |
| C85U A98G | -0.688 |
| U56C C76A A122G | -0.262 |
| U45G C93A A113U C116U | ≤ -4.2 |
| G11C C18G A23C G48A G88U C93G U144A | ≤ -4.2 |
| A22G G42C A52C G58A G68U C87G A142C | ≤ -4.2 |
| A20U A52G C75U G88A C103G A119C | ≤ -4.2 |
| U55A G141A | -0.587 |
| A21G C27A | -3.89 |
| U33C C54A G83C C108G U146A C149A | ≤ -4.2 |
| C35A C54G C72A C75A G84C C114U G133U A138G | ≤ -4.2 |
| G42A G68C G94U | ≤ -4.2 |
| U53A C57G | -2.09 |
| G25U G83A A119C | -2.78 |
| A22G G58C A119U A122U | 0.574 |
| C36A A66C | ≤ -4.2 |

| Variant | polymerase ribozyme fitness (log ratio) |
| --- | --- |
| A22G C54U U56A C76U G94C U145A | -0.624 |
| U6C G11C A16C G58C A142C | -3.7 |
| C38A C87U A98G A106C C125A U135A C149A | ≤ -4.2 |
| C27A U90G A107U | ≤ -4.2 |
| A12U G25U A37G A47C U77A C95G G141A | ≤ -4.2 |
| G58U A91G | -2.46 |
| U6G G86C U135G | ≤ -4.2 |
| A12C A47U U55A | -1.41 |
| G46A U55G C79A C85G A97U | ≤ -4.2 |
| U82G G86A A120G | -1.53 |
| A12U G84C | -2.67 |
| C54G U55A G94U A98C U146G | -3.37 |
| C38G G42C U61G G86U | ≤ -4.2 |
| A12U C85G C123U U127A | ≤ -4.2 |
| A12U G58A | -0.217 |
| C85A C95A C125U | -1.39 |
| A20C A39U A106G C131U A138U | ≤ -4.2 |
| A19U A23C A29G G83C A97U C103G U139C | ≤ -4.2 |
| C118A A119U | -0.617 |
| U82A C103G A113U A137C U148A | ≤ -4.2 |
| A24U U31C G59C A66G A91U C114U | ≤ -4.2 |
| U44A C76U G86U A121U | -3.86 |
| A12G A29U U31A G67U C72A G92U A137G | ≤ -4.2 |
| A37U C95G | -3.51 |

| Variant | polymerase ribozyme fitness (log ratio) |
| --- | --- |
| C36A G42A U45G G81A C87A A137C | ≤ -4.2 |
| A29C A41G A97C A122U | ≤ -4.2 |
| C103G A119C | -1.49 |
| U7C C76U G84A A119U U145G | -3.32 |
| G83C C131G | -3.32 |
| A41C G80A C87A | ≤ -4.2 |
| G48A A107G | -4.08 |
| A23U G74U U82G | ≤ -4.2 |
| C93U A137C | -4.07 |
| G46C C75U G88A A106U C116G | ≤ -4.2 |
| A97U C99G | -1.6 |
| C51U G58A | -1.32 |
| C85U G94A G152C | -3.09 |
| G50C A52C | -2.71 |
| A21U A41C G86A G100U A110C | ≤ -4.2 |
| C10U C14U A19C U55A G59U A97U C105A A115U G141U U148C | ≤ -4.2 |
| A22U G50U C96G U145G | -0.544 |
| C14U G74A G94A A122G | ≤ -4.2 |
| C27U A97G C131A U151C | ≤ -4.2 |
| A21G A52G U102A | -1.09 |
| C10G A52C C93U | ≤ -4.2 |
| C76U C93A | -2.34 |
| A19G U109C G141A | -2.85 |
| A21G A40C G86U A119G A150C | ≤ -4.2 |

| Variant | polymerase ribozyme fitness (log ratio) |
| --- | --- |
| U6C C38A G59U C69A | -2.2 |
| A17U U56C G74U C76U G84U C125G A138C | ≤ -4.2 |
| A3G C18U U56G G94A A110U A138U U139A | ≤ -4.2 |
| C8U G141C | -2.78 |
| U53G G71C G86A G143U | ≤ -4.2 |
| C43A G50A C72U G84U U90A C103A G141U | ≤ -4.2 |
| A12U A39C A52G C57G | -4.2 |
| A41G G59A G81U C95A C114U | -1.27 |
| A40C U44G U53A C87G A107U A121U G124C U130A G143A | ≤ -4.2 |
| C14G U31A G136A | -2.23 |
| C14G U78A G86A | ≤ -4.2 |
| G46U A52G C93G | -4.03 |
| C5G C8U A24G G34A A41G G70C A107G G124U U151G | ≤ -4.2 |
| U4G A49G C87G | ≤ -4.2 |
| A21U A28C U53A G88C | ≤ -4.2 |
| U101A A106C A147G | -3.14 |
| G50A A106G C118U | -1.6 |
| G84U C116U G143C | -3.37 |
| C35A C76A C93U A113U U130G A147G | ≤ -4.2 |
| C32A C87A C93U | ≤ -4.2 |
| A24G A73G G86A G141U U145A A150U | ≤ -4.2 |
| U31A C69G A89U C96G U104A | -3.89 |
| C14G U56A C85G G92A | ≤ -4.2 |
